Measurements taken from US20050175986A1 (SMIT KLINE BEECHAM, published 2005).

Target: T1, recombinant F protein of Respiratory Syncytial Virus (Respiratory Syncytial Virus, UniProt P03420 26-524)
T1 construct: Recombinant F-protein as described in P. Tsui et al, J. Immunol; 157:772-780 (1996); Coated on plastic in the ELISAs; also called recombinant RSV F-protein; rF protein
Test: solid phase ELISA on coated recombinant F protein
Method: Binding of the Gλ-1 mABs to recombinant F protein was measured in a standard solid phase ELISA. Antigen diluted in PBS pH 7.0 was adsorbed onto polystyrene round-bottom microplates (Dynatech, Immunolon II) for 18 hours. Wells were then aspirated and blocked with 0.5% boiled casein (BC) in PBS containing 1% Tween 20 […] for two hours. Antibodies (50 μl/well) were diluted to varying concentrations in PBS/0.5% BC containing 0.025% Tween 20 and incubated in antigen coated wells for one hour. Plates were washed three times with PBS containing 0.05% Tween 20, using a Titertek 320 microplate washer, followed by addition of HRP-labelled protein A/G (50 μl) diluted 1:5000. After washing three times, TMBlue substrate (TSI, #TM102) was added and plates were incubated an additional 15 minutes. The reaction was stopped by addition of 1 N H₂SO₄ and absorbance read at 450 nm using a Biotek ELISA reader.
Binding of the Gλ-1 mABs to rF protein was inhibited by mAb B4, for which the F protein amino acids critical for antigen recognition are amino acids 268, 272 and 275 of SEQ ID NO: 20). Binding of the Gλ-1 mABs to rF protein was not inhibited by mAb RSMU19, for which F protein amino acid 429 of SEQ ID NO: 20 is critical for antigen recognition.

T1 sequence (P03420 26-524 limits assumed): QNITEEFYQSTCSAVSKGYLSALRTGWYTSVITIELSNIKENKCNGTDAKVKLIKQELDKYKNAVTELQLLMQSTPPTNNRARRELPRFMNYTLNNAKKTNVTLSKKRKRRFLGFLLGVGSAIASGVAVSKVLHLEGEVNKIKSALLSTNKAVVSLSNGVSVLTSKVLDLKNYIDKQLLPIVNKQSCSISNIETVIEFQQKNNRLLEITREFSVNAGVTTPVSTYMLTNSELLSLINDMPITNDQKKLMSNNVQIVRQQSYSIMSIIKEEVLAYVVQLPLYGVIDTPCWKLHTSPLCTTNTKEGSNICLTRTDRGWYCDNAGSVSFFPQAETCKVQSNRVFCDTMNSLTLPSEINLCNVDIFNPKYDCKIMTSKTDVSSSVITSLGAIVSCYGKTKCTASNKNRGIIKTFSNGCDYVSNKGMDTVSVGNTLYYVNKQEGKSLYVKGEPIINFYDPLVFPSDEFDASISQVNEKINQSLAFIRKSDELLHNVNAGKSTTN

B1: Gλ-1B monoclonal antibody (antibody, human IgG1, V domains shown)
VH: EVQLVESGGGLVQPGGSLRLSCAASGVSLSGYKMNWVRQAPGKGLEWVSSITGMSNYIHYSDSVKGRFTISRDNAMNSLYLQMNSLTAEDTGVYYCATQPGELAPFDHWGQGTLVTVSS
VL: QSVLTQPPSVSAAPGQKVTISCTGSSSNLGAGYDVHWYRQLPGTAPKLLIYDNNNRPSGVPDRFSGSKSGPSASLAISGLQAEDEADYYCQSYDSSLNGYVFGTGTQLTVLG
notes: Full length human IgG1, lambda light chain; made in COS and CHO cells; also called Gλ-1 mAB B; mAB B
  EC50: 2.6 ng/mL
